Data published in US10428140B2, “Anti-EphA4 antibody” (EISAI R&D MANAGEMENT CO., LTD., priority 2015, dated 2019).

T1: human EphA10 (Homo sapiens, UniProt Q5JZY3)
T1 construct: a protein of the extracellular region of each human Eph receptor fused with the SEAP protein and the His tag; made in house; host or cells: Expi293F cells (culture supernatant)
T1 sequence (Q5JZY3 34-565 limits assumed): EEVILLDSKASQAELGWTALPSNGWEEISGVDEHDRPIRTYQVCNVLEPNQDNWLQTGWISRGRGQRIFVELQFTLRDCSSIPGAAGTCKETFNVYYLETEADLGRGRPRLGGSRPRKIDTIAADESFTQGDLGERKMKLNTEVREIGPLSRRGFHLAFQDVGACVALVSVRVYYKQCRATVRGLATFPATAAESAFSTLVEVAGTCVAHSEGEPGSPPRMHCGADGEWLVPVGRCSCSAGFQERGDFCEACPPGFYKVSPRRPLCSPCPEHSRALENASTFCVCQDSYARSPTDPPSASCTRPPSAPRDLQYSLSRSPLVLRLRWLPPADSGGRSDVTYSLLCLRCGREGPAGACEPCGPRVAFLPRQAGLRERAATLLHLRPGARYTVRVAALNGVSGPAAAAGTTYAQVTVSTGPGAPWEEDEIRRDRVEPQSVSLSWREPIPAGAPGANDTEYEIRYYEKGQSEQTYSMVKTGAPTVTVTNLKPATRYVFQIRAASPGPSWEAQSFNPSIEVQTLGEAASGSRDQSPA

T2: human EphB3 (Homo sapiens, UniProt P54753)
T2 construct: a protein of the extracellular region of each human Eph receptor fused with the SEAP protein and the His tag; made in house; host or cells: Expi293F cells
T2 sequence (P54753 34-559 limits assumed): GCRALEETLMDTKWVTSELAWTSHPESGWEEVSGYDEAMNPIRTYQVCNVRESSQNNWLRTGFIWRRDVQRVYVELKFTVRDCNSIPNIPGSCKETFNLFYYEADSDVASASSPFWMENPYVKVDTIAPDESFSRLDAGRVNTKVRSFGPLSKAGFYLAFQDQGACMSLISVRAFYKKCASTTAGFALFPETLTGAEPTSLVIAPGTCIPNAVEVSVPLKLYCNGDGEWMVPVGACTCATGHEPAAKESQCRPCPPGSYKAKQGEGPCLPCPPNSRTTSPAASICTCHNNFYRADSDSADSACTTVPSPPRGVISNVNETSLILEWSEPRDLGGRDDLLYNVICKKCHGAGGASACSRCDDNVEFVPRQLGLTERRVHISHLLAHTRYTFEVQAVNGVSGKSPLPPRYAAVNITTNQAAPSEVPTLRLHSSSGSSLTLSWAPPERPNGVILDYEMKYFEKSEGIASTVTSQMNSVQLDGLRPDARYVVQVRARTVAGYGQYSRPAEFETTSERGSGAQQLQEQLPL

T3: human EphB2 (Homo sapiens, UniProt P29323)
T3 construct: a protein of the extracellular region of each human Eph receptor fused with the SEAP protein and the His tag; made in house; host or cells: Expi293F cells
T3 sequence (P29323 19-543 limits assumed): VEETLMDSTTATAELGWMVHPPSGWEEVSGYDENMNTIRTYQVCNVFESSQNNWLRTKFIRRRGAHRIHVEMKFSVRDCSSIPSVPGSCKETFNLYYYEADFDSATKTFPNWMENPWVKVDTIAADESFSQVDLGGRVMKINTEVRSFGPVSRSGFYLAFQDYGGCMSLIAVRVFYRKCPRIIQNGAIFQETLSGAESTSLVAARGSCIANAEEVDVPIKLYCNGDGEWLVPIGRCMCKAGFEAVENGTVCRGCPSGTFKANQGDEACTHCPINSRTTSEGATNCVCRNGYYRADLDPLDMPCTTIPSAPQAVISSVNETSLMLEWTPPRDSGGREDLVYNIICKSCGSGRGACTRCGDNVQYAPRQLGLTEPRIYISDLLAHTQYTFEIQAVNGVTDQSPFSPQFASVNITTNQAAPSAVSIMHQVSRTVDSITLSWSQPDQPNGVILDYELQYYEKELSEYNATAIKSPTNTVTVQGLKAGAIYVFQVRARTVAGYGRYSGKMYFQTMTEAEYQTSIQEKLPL


Columns and labels:
Assay in all cases: Selectivity ELISA of humanized antibodies for human Eph receptor
Format in all cases: binding
Conditions in all cases: coated protein 1 nM
human EphA10 = molecular target: T1, human EphA10
Excerpt: (§1) According to the method described in Example 7, a DNA sequence encoding the signal sequence and the extracellular region of each human Eph receptor (EphA1, EphA2, EphA3, EphA4, EphA5, EphA6, EphA7, EphA8, EphA10, EphB1, EphB2, EphB3, EphB4, and EphB6) was amplified by RT-PCR using tissue-derived total RNA and cloned into a pENTR1A vector (Invitrogen/Life Technologies) having a DNA sequence encoding SEAP protein and histidine tag. Next, the DNA sequence encoding the signal sequence and the extracellular region of each human Eph receptor, SEAP protein, and histidine tag was transferred to a pcDNA3.1_rfcB vector through LR reaction using Gateway System (Invitrogen/Life Technologies) to construct a vector for the expression of a protein of the extracellular region of each human Eph receptor fused with the SEAP protein and the His tag (referred to as “Eph receptor extracellular region-SEAP-His protein”) (this vector is referred to as “Eph receptor extracellular region-SEAP-His protein expression vector”).
(§2) Next, each human Eph receptor extracellular region-SEAP-His protein expression vector was transferred to Expi293F cells (Gibco/Thermo Fisher Scientific) using Expi293 expression system (Gibco/Thermo Fisher Scientific). After incubation (5% CO2, 37° C.) for 5 days, the culture supernatant was recovered and centrifuged at 1500 rpm at room temperature for 5 minutes. The centrifugation supernatant was filtered through a 0.45-μm filter (Merck Millipore).
(§3) Each anti-EphA4 monoclonal humanized antibody obtained in Example 16 was evaluated for its binding activity against each human Eph receptor according to the following steps.
(§4) Each well of a 96-well plate (Nunc) was coated with a rabbit anti-6-His antibody (Bethyl Laboratories). Each well was […] After washing with 0.05% Tween 20/PBS (Nacalai Tesque) three times, the SEAP-His protein of human EphA1, EphA2, EphA3, EphA4, EphA5, EphA6, EphA7, EphA8, EphA10, EphB1, EphB2, EphB3, EphB4, or EphB6 was added (final concentration: 1 nM) to each well and incubated at room temperature for 1 hour. After washing three times, the humanized antibody was added to each well and incubated at room temperature for 1 hour. After washing three times, a horseradish peroxidase-labeled donkey […] IgG antibody (Jackson ImmunoResearch Laboratories) was added thereto and incubated at room temperature for 1 hour. After washing three times, TMB Microwell Peroxidase Substrate System (Kirkegaard & Perry Laboratories (KPL)) was added to each well. After confirmation of moderate color development, an equal amount of a reaction stopping solution (1N H2SO4, Wako Pure Chemical Industries) was added to each well. The absorbance at 450 nm was read using a microplate reader (Thermo Fisher Scientific).

human EphB3 = molecular target: T2, human EphB3
Excerpt: as §1, §2, §3, §4

human EphB2 = molecular target: T3, human EphB2
Excerpt: as §1, §2, §3, §4

Molecule | hEphA10-SEAP-: absorbance at 450 nm, percentage with respect to hEphA4-SEAP-His as 100% (human EphA10) | hEphB3-SEAP-: absorbance at 450 nm, percentage with respect to hEphA4-SEAP-His as 100% (human EphB3) | hEphB2-SEAP-: absorbance at 450 nm, percentage with respect to hEphA4-SEAP-His as 100% (human EphB2)
69 (antibody, V domains shown, synthetic humanized antibody heavy chain variable region sequence; synthetic humanized antibody light chain variable region sequence) VH: QIQLVQSGSELKKPGASVKVSCKASGYTFTDYSMHWVRQAPGQGLKWMGWINTETGEPTYADDFKGRFVFSLDTSVSTAYLQISSLKAEDTAVYYCARIPLYYYGSRYWYFDVWGQGTTVTVSS VL: DIQMTQSPSSLSASVGDRVTITCRASENIYRNLAWYQQKPGKAPKLLVYAATNLADGVPSRFSGSGSGTDYTLTISSLQPEDFATYYCQHFWGTPWTFGQGTKVEIK | 5.4% | 5.9% | 5.5%
82 (antibody, V domains shown, constant regions without entry; synthetic humanized antibody light chain variable region sequence; synthetic humanized antibody heavy chain variable region sequence) VL: DIQMTQSPSSLSASVGDRVTITCRASENIYRNLAWYQQKPGKAPKLLLYAATNLADGVPSRFSGSGSGTDYTLTISSLQSEDFATYYCQHFWGTPWTFGQGTKVEIK VH: QVQLVQSGSELKKPGASVKVSCKASGYTFTDYSMHWVRQAPGQGLKWMGWINTETGEPTYAQGFTGRFVFSLDTSVSTAYLQISSLKAEDTAVYYCARIPLYYYGSRYWYFDVWGQGTTVTVSS | 5.4% | 5.6% | 5.6%
83 (antibody, V domains shown, constant regions without entry; synthetic humanized antibody light chain variable region sequence; synthetic humanized antibody heavy chain variable region sequence) VL: DIQMTQSPSSLSASVGDRVTITCRASENIYRNLAWYQQKPGKAPKLLLYAATNLADGVPSRFSGSGSGTDYTLTISSLQSEDFATYYCQHFWGTPWTFGQGTKVEIK VH: QIQLVQSGSELKKPGASVKVSCKASGYTFTDYSMHWVRQAPGQGLKWMGWINTETGEPTYAQGFTGRFVFSLDTSVSTAYLQISSLKAEDTAVYYCARIPLYYYGSRYWYFDVWGQGTTVTVSS | 5.6% | 5.7% | 5.6%
85 (antibody, V domains shown, constant regions without entry; synthetic humanized antibody light chain variable region sequence; synthetic humanized antibody heavy chain variable region sequence) VL: DIQMTQSPSSLSASVGDRVTITCRASENIYRNLAWYQQKPGKAPKLLLYAATNLADGVPSRFSGSGSGTDYTLTISSLQSEDFATYYCQHFWGTPWTFGQGTKVEIK VH: QVQLVQSGSELKKPGASVKVSCKASGYTFTDYSMHWVRQAPGQGLKWMGWINTETGEPTYADDFKGRFVFSLDTSVSTAYLQISSLKAEDTAVYYCARIPLYYYGSRYWYFDVWGQGTTVTVSS | 5.0% | 5.2% | 5.1%
84 (antibody, V domains shown, constant regions without entry; synthetic humanized antibody light chain variable region sequence; synthetic humanized antibody heavy chain variable region sequence) VL: DIQMTQSPSSLSASVGDRVTITCRASENIYRNLAWYQQKPGKAPKLLLYAATNLADGVPSRFSGSGSGTDYTLTISSLQSEDFATYYCQHFWGTPWTFGQGTKVEIK VH: QVQLVQSGSELKKPGASVKVSCKASGYTFTDYSMHWVRQAPGQGLEWMGWINTETGEPTYADDFKGRFVFSLDTSVSTAYLQISSLKAEDTAVYYCARIPLYYYGSRYWYFDVWGQGTTVTVSS | 5.1% | 4.8% | 4.9%
81 (antibody, V domains shown, constant regions without entry; synthetic humanized antibody light chain variable region sequence; synthetic humanized antibody heavy chain variable region sequence) VL: DIQMTQSPSSLSASVGDRVTITCRASENIYRNLAWYQQKPGKAPKLLLYAATNLADGVPSRFSGSGSGTDYTLTISSLQSEDFATYYCQHFWGTPWTFGQGTKVEIK VH: QVQLVQSGSELKKPGASVKVSCKASGYTFTDYSMHWVRQAPGQGLEWMGWINTETGEPTYAQGFTGRFVFSLDTSVSTAYLQISSLKAEDTAVYYCARIPLYYYGSRYWYFDVWGQGTTVTVSS | 4.8% | 4.9% | 5.0%
